Laboratory results reported in publication PMC7755903 (Nature Communications, 2020).
Values joined by “and” are separate entries in the source; they are usually repeats but may differ in a detail not shown here. Identical values can stand only once.

B1: E104.v2 IgG1 hinge variant G1 + (GGS)3 (antibody, V domains shown)
VH: EVQLVESGPGLVKPSETLSLTCTVSRFSLIGYAITWIRQPPGKGLEWIGGISSAATTFYSSWAKSRVTISRDTSKNQVSLKLSSVTAADTAVYYCARDPRGYGAALDRLDLWGQGTLVTVSS
VL: DIQMTQSPSSLSASVGDRVTITCQSIKSVYNNRLGWYQQKPGKAPKLLIYETSILTSGVPSRFSGSGSGTDFTLTISSLQPEDFATYYCAGGFDRSGDTTFGQGTKVEIK
notes: variable domain of the heavy chain as in m6 (PDB 6VVU, Fab heavy chain) with V71R and F78V (Kabat numbering); human IgG1 heavy chain constant region before the upper hinge (CH1); upper hinge of the variant; human IgG1 heavy chain constant region after the upper hinge (core hinge from C226, CH2, CH3); as the light chain of m6 (PDB 6VVU, Fab light chain); IgG1 with an extended upper hinge; source: …
B2: E104.v2 IgG1 hinge variant G1 + GGS (antibody, V domains shown)
VH: B1 VH
VL: B1 VL
notes: humanized E104.v2 VH: as the VH of Sm2 (E104.v1, PDB 6VVU heavy chain) with V71R and F78V (Kabat numbering); human IgG1 heavy chain constant region, the CH1 domain up to the upper hinge; human IgG1 heavy chain constant region after the upper hinge (core and lower hinge, CH2, CH3); IgG1 with extended upper hinge; copies: 2 + 2
B3: E104.v2 IgG1 hinge variant G1 + GG (antibody, V domains shown)
VH: B1 VH
VL: B1 VL
notes: as for B1
B4: E104.v2 IgG1 hinge variant G1.G5 (antibody, V domains shown)
VH: B1 VH
VL: B1 VL
notes: humanized E104.v2 VH: as the VH of Sm2 (E104.v1, PDB 6VVU heavy chain) with V71R and F78V (Kabat numbering); human IgG1 heavy chain constant region, the CH1 domain up to the upper hinge; engineered upper hinge: DKTHT of the human IgG1 upper hinge replaced by five glycines; human IgG1 heavy chain constant region after the upper hinge (core and lower hinge, CH2, CH3); IgG1 with a flexible upper …
B5: E104.v2 IgG2 (antibody, V domains shown)
VH: B1 VH
VL: B1 VL
notes: variable domain of the heavy chain as in m6 (PDB 6VVU, Fab heavy chain) with V71R and F78V (Kabat numbering); human IgG2 heavy chain constant region; upper hinge printed as ERKCCVE; as the light chain of m6 (PDB 6VVU, Fab light chain); IgG2 isotype version of E104.v2; source: 293 cells, transient transfection, purified (MabSelect SuRe, SEC); copies: 2 + 2
B6: E104.v2 IgG1 hinge variant G1-H (antibody, V domains shown)
VH: B1 VH
VL: B1 VL
B7: E104.v2 IgG1 hinge variant G1 + (GGS)3 (antibody, V domains shown)
VH: B1 VH
VL: B1 VL
notes: as for B2
B8: E104.v2 IgG1 hinge variant G1-KTH (antibody, V domains shown)
VH: B1 VH
VL: B1 VL
notes: variable domain of the heavy chain as in m6 (PDB 6VVU, Fab heavy chain) with V71R and F78V (Kabat numbering); human IgG1 heavy chain constant region before the upper hinge (CH1); upper hinge of the variant; human IgG1 heavy chain constant region after the upper hinge (core hinge from C226, CH2, CH3); as the light chain of m6 (PDB 6VVU, Fab light chain); IgG1 with a shortened upper hinge; source: …
B9: humanized E104.v2 IgG2 (antibody, V domains shown)
VH: B1 VH
VL: B1 VL
notes: humanized E104.v2 VH: as the VH of Sm2 (E104.v1, PDB 6VVU heavy chain) with V71R and F78V (Kabat numbering); human IgG2 heavy chain constant region, the CH1 domain up to the upper hinge; upper hinge of human IgG2; human IgG2 heavy chain constant region after the upper hinge (core and lower hinge, CH2, CH3); IgG2 isotype version of E104.v2; copies: 2 + 2
B10: humanized E104.v2 IgG1 (antibody, V domains shown)
VH: B1 VH
VL: B1 VL
notes: humanized E104.v2 VH: as the VH of Sm2 (E104.v1, PDB 6VVU heavy chain) with V71R and F78V (Kabat numbering); human IgG1 heavy chain constant region, the CH1 domain up to the upper hinge; upper hinge of human IgG1, wild type; human IgG1 heavy chain constant region after the upper hinge (core and lower hinge, CH2, CH3); v1 and v2 differ only in the heavy chain; IgG1; also called IgG1.v2; copies: 2 …
B11: E104.v2 IgG1 hinge variant G1 + GG (antibody, V domains shown)
VH: B1 VH
VL: B1 VL
notes: as for B2
B12: humanized E104.v2 IgG4 (antibody, V domains shown)
VH: B1 VH
VL: B1 VL
notes: variable domain of the heavy chain as in m6 (PDB 6VVU, Fab heavy chain) with V71R and F78V (Kabat numbering); human IgG4 heavy chain constant region; upper hinge printed as ESKYGPP; as the light chain of m6 (PDB 6VVU, Fab light chain); IgG4 isotype version of E104.v2; source: 293 cells, transient transfection, purified (MabSelect SuRe, SEC); copies: 2 + 2
B13: E104.v2 IgG1 hinge variant G1.CC (antibody, V domains shown)
VH: B1 VH
VL: B1 VL
notes: variable domain of the heavy chain as in m6 (PDB 6VVU, Fab heavy chain) with V71R and F78V (Kabat numbering); human IgG1 heavy chain constant region before the upper hinge (CH1); upper hinge of the variant; human IgG1 heavy chain constant region after the upper hinge (core hinge from C226, CH2, CH3); as the light chain of m6 (PDB 6VVU, Fab light chain); IgG1 with two added cysteines in the upper …
B14: E104.v2 IgG1 hinge variant G1-H (antibody, V domains shown)
VH: B1 VH
VL: B1 VL
notes: as for B8
B15: E104.v2 IgG1 hinge variant G1.P5 (antibody, V domains shown)
VH: B1 VH
VL: B1 VL
notes: variable domain of the heavy chain as in m6 (PDB 6VVU, Fab heavy chain) with V71R and F78V (Kabat numbering); human IgG1 heavy chain constant region before the upper hinge (CH1); upper hinge of the variant; human IgG1 heavy chain constant region after the upper hinge (core hinge from C226, CH2, CH3); as the light chain of m6 (PDB 6VVU, Fab light chain); IgG1 with five prolines in the upper hinge; …
B16: E104.v2 IgG1 hinge variant G1-KTH (antibody, V domains shown)
VH: B1 VH
VL: B1 VL
B17: wild-type (WT) tetrameric human βI-tryptase (enzyme)
chain: not shown
notes: mature human βI-tryptase, Ile31-Pro275 of Uniprot Q15661 (Ile16-Pro246 in chymotrypsinogen numbering); N-terminus IVGG after enterokinase cleavage; Homotetramer; residues in the results are in chymotrypsinogen numbering; also called βI-tryptase tetramer; tetrameric β-tryptase; source: Trichoplusia ni cells (baculovirus), secreted, purified (Ni-NTA, S200 SEC); zymogen cleaved with enterokinase in …

Key:
[1] = biological target: T1, human βI-tryptase monomer (Homo sapiens, UniProt Q15661); assay: SPR; Biacore T200; E104 IgG variants captured on immobilised mouse anti-human IgG (Fc) antibody on CM5 chips; threefold dilutions of human βI-tryptase monomer injected at 30 µL/min, 25 °C; 1:1 Langmuir model; n = 2; conditions: both partners purified
T1 construct: mature human βI-tryptase, Ile31-Pro275 of Uniprot Q15661 (Ile16-Pro246 in chymotrypsinogen numbering); The monomer used in SPR and HDX-MS; also called monomeric βI-tryptase; monomeric β-tryptase
T1 sequence (Q15661 31-275): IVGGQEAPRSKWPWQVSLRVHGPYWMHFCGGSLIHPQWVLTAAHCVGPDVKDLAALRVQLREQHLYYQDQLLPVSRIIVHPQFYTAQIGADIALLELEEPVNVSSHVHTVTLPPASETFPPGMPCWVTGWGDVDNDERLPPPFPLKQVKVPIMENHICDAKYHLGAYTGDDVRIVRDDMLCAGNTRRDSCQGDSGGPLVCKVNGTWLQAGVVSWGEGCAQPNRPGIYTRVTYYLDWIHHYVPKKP

[2] = biological target: T2, human βI-tryptase monomer (Homo sapiens, UniProt Q15661); assay: SPR; Biacore T200; antibody captured on a CM5 chip by immobilised mouse anti-human IgG (Fc); threefold dilutions of βI-tryptase monomer injected at 30 µL/min, 25 °C, 3-min association, 10-min dissociation; 1:1 Langmuir fit; n = 2; conditions: both partners purified
T2 construct: mature wild-type human βI-tryptase, Uniprot Q15661, Ile31-Pro275 (Ile16-Pro246 in chymotrypsinogen numbering); The SPR methods say only 'human βI-tryptase monomer'; The methods describe the monomeric form as the zymogen, which still carries the N-terminal His6 tag and enterokinase site before Ile16; also called monomeric βI-tryptase; β-tryptase; source: Trichoplusia ni cells (baculovirus, …)
T2 sequence (Q15661 31-275): as above

[3] = biological target: T3, human βI-tryptase monomer (Homo sapiens, UniProt Q15661); assay: SPR; Biacore T200; anti-tryptase IgG variant captured on a CM5 chip with anti-human IgG (Fc) antibody; threefold dilutions of human βI-tryptase monomer injected at 30 µL/min, 25 °C, 3-min association, 10-min dissociation; 1:1 binding model; representative single sensorgram sets; conditions: both partners purified
T3 construct: mature wild-type human βI-tryptase, Uniprot Q15661, Ile31-Pro275 (Ile16-Pro246 chymotrypsinogen numbering); also called monomeric βI-tryptase; β1-tryptase; source: Trichoplusia ni cells (baculovirus), secreted, purified (Ni-NTA, S200 SEC)
T3 sequence (Q15661 31-275): as above

[4] = biological target: the molecule itself; assay: crystal structure; E104.v1 Fab with tetrameric βI-tryptase; crystals at 19 °C, 0.1 M Tris pH 8.5, 0.2 M CaCl2, 20% PEG 4000, 4% pentaerythritol ethoxylate; 3.0 Å

Binder	Kd [1]	Kd [2]	further results
B1	0.5 ± 0.1 nM	–	–
B2	–	0.435 nM and 0.502 nM	–
B3	0.4 ± 0.02 nM	–	–
B4	–	0.643 nM and 0.493 nM	–
B5	0.6 ± 0.1 nM	–	–
B6	–	–	Kd [3]: 0.68 nM
B7	–	0.626 nM and 0.41 nM	–
B8	0.5 ± 0.09 nM	–	–
B9	–	0.537 nM and 0.672 nM	–
B10	–	0.6 nM	–
B11	–	0.448 nM and 0.422 nM	–
B12	0.7 ± 0.04 nM	–	–
B13	0.4 ± 0.03 nM	–	–
B14	0.6 ± 0.1 nM	–	–
B15	0.4 ± 0.1 nM	–	–
B16	–	–	Kd [3]: 0.522 nM
B17	–	–	stoichiometry N [4]: 4
